The values that follow are results of earlier work, collected in paper PMC8395526.

In the data set the target is erbB2 (Homo sapiens) (UniProt P04626). As to the kind of experiment: SPR. In general terms: SPR reads the build-up and loss of mass on a sensor chip optically.

Usually Kd stands for the concentration at which binding is half-saturated. Consider “erbB2-SbdIV subdomain IV (from UniProt P04626)”, for which the Kd is 1890 nM.
